Assay results as given in the supplement of paper PMC10065799, “High-throughput profiling of sequence recognition by tyrosine kinases and SH2 domains using bacterial peptide display” (eLife, 2023).

Experiments:
Jak2 = Jak2 (UniProt O60674); assay: phosphorylation enrichment, bacterial display (enrichment ratio); higher = better substrate or ligand; peptides without Tyr show the background
Fyn = Fyn (UniProt P06241); assay: as above
c-Src = assay: as above
MERTK = MERTK (UniProt Q12866); assay: as above
Sequence of MERTK (Q12866 whole entry, looked up): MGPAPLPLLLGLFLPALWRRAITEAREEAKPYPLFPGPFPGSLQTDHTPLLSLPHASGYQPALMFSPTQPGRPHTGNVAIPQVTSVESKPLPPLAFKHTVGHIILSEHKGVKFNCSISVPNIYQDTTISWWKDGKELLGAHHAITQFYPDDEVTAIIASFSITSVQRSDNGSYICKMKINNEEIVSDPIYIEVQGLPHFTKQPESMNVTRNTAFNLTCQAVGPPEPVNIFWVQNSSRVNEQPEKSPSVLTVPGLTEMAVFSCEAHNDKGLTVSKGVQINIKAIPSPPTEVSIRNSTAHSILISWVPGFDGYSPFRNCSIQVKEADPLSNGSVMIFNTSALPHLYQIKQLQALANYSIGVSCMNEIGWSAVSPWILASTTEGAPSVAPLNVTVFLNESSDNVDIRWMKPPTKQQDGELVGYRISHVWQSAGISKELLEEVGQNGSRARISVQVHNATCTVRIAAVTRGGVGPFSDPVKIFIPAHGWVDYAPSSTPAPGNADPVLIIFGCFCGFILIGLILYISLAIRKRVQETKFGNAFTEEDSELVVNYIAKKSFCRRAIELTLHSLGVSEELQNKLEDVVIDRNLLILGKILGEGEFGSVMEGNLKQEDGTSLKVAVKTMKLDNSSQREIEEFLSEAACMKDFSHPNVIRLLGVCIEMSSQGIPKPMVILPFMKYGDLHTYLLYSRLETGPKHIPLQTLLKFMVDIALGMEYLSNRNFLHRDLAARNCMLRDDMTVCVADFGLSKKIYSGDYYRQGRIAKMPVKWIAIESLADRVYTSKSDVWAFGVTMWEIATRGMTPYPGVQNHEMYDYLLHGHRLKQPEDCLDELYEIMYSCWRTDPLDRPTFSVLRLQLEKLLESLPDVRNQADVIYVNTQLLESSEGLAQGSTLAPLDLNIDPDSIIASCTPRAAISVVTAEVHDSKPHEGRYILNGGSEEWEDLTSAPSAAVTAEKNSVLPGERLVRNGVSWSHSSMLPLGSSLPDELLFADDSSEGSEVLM

Fes = Fes (UniProt P07332); assay: as above
Sequence of Fes (P07332 whole entry, looked up): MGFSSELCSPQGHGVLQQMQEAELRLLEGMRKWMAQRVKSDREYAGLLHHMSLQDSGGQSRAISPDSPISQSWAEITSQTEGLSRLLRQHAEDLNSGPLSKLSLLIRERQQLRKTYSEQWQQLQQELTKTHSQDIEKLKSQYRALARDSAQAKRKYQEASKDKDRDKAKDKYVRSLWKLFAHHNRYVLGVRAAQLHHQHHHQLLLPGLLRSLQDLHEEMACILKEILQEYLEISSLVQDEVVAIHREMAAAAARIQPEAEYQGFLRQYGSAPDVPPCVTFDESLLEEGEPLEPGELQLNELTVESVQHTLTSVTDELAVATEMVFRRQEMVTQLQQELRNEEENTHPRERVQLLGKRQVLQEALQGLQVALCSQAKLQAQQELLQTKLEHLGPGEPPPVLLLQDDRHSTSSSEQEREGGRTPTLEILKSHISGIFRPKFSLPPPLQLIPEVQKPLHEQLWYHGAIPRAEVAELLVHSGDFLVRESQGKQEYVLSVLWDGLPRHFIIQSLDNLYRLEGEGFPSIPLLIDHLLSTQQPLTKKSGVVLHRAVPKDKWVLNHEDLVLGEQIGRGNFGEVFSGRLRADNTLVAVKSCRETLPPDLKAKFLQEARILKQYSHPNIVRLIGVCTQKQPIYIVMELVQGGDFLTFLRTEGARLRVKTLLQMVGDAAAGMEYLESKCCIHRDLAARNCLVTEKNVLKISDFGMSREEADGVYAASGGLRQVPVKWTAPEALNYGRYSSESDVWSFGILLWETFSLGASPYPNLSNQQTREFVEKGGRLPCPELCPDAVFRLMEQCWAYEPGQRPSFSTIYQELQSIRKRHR

EPHB1 = EPHB1 (UniProt P54762); assay: as above
Fer (mouse) = assay: as above
FGFR1 = FGFR1 (UniProt P11362); assay: as above
Sequence of FGFR1 (P11362 whole entry, looked up): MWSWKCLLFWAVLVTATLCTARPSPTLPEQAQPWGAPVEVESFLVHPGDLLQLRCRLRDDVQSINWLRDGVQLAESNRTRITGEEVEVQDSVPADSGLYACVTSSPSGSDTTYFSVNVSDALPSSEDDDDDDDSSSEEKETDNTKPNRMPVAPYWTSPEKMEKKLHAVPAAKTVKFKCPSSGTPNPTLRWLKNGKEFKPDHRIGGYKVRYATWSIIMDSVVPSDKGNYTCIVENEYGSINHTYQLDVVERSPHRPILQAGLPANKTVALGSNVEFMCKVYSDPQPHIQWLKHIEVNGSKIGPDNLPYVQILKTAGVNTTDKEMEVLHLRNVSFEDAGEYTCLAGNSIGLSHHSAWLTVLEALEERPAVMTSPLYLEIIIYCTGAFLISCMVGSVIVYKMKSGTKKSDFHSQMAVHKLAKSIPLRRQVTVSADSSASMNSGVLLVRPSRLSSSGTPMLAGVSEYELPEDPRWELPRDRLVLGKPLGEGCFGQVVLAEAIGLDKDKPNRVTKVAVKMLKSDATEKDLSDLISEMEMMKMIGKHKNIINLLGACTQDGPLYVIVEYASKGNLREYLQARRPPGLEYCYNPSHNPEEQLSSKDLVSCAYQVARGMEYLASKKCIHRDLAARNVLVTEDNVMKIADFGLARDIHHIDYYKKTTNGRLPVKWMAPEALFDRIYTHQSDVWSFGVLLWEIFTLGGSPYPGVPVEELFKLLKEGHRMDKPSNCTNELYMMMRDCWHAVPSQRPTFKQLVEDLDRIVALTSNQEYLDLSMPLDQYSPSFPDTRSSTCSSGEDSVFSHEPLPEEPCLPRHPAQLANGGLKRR

FGFR3 = FGFR3 (UniProt P22607); assay: as above
c-Abl (mouse) = assay: as above
AncSZ = assay: as above
Hck = Hck (UniProt P08631); assay: as above
Sequence of Hck (P08631 whole entry, looked up): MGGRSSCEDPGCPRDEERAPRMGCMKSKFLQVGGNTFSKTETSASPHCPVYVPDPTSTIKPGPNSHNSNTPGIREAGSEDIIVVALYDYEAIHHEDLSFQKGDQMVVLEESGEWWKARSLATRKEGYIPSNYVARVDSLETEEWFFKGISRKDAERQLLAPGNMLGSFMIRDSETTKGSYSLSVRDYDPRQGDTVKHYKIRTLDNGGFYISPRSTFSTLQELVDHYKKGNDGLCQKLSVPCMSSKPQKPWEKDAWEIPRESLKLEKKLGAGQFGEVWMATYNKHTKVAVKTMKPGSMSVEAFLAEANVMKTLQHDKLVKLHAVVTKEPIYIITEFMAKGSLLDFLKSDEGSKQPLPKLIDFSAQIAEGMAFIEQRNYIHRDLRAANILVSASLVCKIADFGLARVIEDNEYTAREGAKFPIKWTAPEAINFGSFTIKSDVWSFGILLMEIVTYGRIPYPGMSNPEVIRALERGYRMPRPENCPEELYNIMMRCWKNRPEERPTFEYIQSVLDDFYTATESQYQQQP

EPHB2 = EPHB2 (UniProt P29323); assay: as above
Sequence of EPHB2 (P29323 whole entry, looked up): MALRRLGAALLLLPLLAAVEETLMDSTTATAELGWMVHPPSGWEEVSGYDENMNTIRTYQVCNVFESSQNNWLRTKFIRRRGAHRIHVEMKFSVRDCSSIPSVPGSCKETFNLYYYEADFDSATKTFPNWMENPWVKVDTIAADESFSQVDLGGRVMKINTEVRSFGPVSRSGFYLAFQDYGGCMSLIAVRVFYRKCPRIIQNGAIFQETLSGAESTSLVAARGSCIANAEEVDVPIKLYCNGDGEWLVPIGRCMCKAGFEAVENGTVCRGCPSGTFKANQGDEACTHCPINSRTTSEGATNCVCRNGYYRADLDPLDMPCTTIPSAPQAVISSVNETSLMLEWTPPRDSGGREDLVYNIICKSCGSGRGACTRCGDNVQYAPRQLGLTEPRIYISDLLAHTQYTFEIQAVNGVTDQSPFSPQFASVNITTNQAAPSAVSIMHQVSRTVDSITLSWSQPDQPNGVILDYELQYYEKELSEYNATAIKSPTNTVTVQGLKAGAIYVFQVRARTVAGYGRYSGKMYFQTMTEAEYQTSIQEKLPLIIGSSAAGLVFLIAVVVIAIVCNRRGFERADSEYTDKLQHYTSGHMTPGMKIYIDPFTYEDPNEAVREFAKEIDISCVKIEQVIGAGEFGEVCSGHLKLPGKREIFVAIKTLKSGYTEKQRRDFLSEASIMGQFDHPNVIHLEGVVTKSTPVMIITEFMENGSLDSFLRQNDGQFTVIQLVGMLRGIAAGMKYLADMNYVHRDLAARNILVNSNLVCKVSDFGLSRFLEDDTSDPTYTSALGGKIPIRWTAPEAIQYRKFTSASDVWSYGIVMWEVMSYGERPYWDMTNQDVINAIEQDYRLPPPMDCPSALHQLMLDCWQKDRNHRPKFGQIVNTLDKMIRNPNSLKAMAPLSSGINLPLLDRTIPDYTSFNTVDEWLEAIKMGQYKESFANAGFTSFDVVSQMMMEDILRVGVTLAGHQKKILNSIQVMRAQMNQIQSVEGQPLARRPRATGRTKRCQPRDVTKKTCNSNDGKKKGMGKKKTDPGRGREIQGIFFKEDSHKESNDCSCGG

Grb2 SH2 = Grb2 SH2 (UniProt P62993); assay: SH2 binding enrichment of the phosphorylated peptide, bacterial display (enrichment ratio); higher = better substrate or ligand; peptides without Tyr show the background
Sequence of Grb2 SH2 (P62993 whole entry, looked up): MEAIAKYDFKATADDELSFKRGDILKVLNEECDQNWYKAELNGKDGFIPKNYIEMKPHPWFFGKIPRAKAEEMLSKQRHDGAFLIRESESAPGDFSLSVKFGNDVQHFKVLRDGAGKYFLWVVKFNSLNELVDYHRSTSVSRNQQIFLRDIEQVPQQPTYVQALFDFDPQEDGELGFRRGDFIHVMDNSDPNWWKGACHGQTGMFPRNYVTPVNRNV

SHP2-C SH2 = assay: as above
c-Src SH2 = assay: as above
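Throughout, for SH2 binding enrichment of the phosphorylated peptide, bacterial display: peptide library displayed on the E. coli surface as eCPX fusions, selected cells deep-sequenced, score is each peptide's frequency after selection divided by its frequency in the input.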
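Throughout, for phosphorylation enrichment, bacterial display: 11-residue human phosphosite peptides and single-mutation variants displayed on the E. coli surface, counted by deep sequencing, each peptide's frequency after selection divided by its frequency in the unselected input library; frequency after pTyr selection over input frequency; kinase dosed for 20-30% of maximal phosphorylation in three min.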

Sequence of Fyn (P06241 whole entry, looked up): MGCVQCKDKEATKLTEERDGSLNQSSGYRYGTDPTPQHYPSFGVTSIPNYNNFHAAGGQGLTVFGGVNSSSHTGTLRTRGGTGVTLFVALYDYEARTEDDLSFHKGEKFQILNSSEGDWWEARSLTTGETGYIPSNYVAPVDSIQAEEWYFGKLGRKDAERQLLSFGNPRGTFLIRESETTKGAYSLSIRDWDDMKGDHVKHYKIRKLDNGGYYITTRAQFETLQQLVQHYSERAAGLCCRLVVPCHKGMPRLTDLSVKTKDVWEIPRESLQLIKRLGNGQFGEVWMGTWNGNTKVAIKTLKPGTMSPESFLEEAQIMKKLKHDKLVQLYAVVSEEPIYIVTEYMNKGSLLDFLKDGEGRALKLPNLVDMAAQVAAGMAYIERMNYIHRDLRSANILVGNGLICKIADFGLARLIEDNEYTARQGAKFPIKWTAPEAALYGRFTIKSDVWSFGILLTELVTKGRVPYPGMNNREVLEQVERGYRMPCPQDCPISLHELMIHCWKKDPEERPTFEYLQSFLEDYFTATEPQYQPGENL

| Sequence | phosphorylation enrichment (Jak2) | phosphorylation enrichment (Fyn) | phosphorylation enrichment (c-Src) | phosphorylation enrichment (MERTK) | phosphorylation enrichment (Fes) | phosphorylation enrichment (EPHB1) | phosphorylation enrichment (Fer (mouse)) | phosphorylation enrichment (FGFR1) | phosphorylation enrichment (FGFR3) | phosphorylation enrichment (c-Abl (mouse)) | phosphorylation enrichment (AncSZ) | phosphorylation enrichment (Hck) | phosphorylation enrichment (EPHB2) | SH2 binding enrichment (Grb2 SH2) | SH2 binding enrichment (SHP2-C SH2) | SH2 binding enrichment (c-Src SH2) |
| --- | --- | --- | --- | --- | --- | --- | --- | --- | --- | --- | --- | --- | --- | --- | --- | --- |
| KVGPGYLGSRG [RET_Y826_G830R] | 0.439 | 0.329 | 0.366 | 0.457 | 0.55 | 0.302 | 0.328 | 0.318 | 0.339 | 0.444 | 0.402 | 0.327 | 0.345 | 1 | 0.769 | 0.588 |
| DSDTDYGSGFP [RNASEH2A_Y206_L202S_YF] | 0.905 | 0.429 | 0.494 | 0.455 | 1.01 | 0.545 | 0.492 | 0.418 | 0.605 | 0.755 | 1.1 | 0.566 | 0.557 | 0.705 | 0.697 | 0.494 |
| EKSREYHRLFE [PIK3R1_Y463_D464H_YF] | 0.51 | 0.358 | 0.442 | 0.427 | 0.737 | 0.407 | 0.409 | 0.526 | 0.538 | 0.486 | 0.656 | 0.429 | 0.483 | 0.912 | 0.753 | 4.61 |
| LITTLYSGFLG [KCNQ1_Y267_I268S] | 0.992 | 5.49 | 6.52 | 3.39 | 1.08 | 0.965 | 0.824 | 0.339 | 0.755 | 1.22 | 1.38 | 3.96 | 0.611 | 1.54 | 1.56 | 1.44 |
| VGSIKYLKREW [KCNMA1_Y885_E884K] | 0.61 | 0.395 | 0.38 | 0.311 | 0.754 | 0.56 | 0.465 | 0.412 | 0.431 | 0.482 | 0.68 | 0.446 | 0.505 | 1.16 | 0.723 | 0.802 |
| HIPFRYPKEFQ [IDS_Y234] | 0.815 | 0.424 | 0.756 | 0.645 | 1.26 | 0.521 | 0.344 | 0.442 | 0.66 | 0.946 | 0.826 | 0.564 | 0.641 | 1.1 | 1.12 | 0.862 |
| FMFKVYSDPQP [FGFR1_Y280_C277Y_YF] | 1.49 | 0.596 | 0.398 | 0.438 | 1.68 | 1.08 | 0.679 | 0.572 | 1.08 | 1.16 | 1.54 | 0.667 | 0.845 | 0.693 | 0.566 | 0.49 |
| FAREGYSALPQ [SARS2_Y52_YF] | 0.652 | 0.421 | 0.43 | 0.502 | 0.666 | 0.426 | 0.441 | 0.471 | 0.446 | 0.564 | 0.603 | 0.524 | 0.466 | 0.914 | 0.85 | 0.583 |
| RSLLQYGGSAN [ANK1_Y624] | 0.626 | 0.537 | 0.459 | 0.439 | 0.857 | 0.709 | 0.8 | 0.574 | 0.772 | 1.01 | 0.964 | 0.813 | 0.717 | 0.749 | 0.716 | 0.482 |
| VERIGYDFIPT [CBS_Y308_G305R] | 0.611 | 0.529 | 0.434 | 0.521 | 0.801 | 0.544 | 0.417 | 0.56 | 0.605 | 0.593 | 0.759 | 0.571 | 0.461 | 0.934 | 0.686 | 3.49 |
| QMQAAYQKVVA [HBD_Y131] | 0.497 | 0.47 | 0.293 | 0.412 | 0.578 | 0.373 | 0.519 | 0.419 | 0.72 | 0.422 | 0.504 | 0.47 | 0.441 | 1.03 | 0.418 | 0.937 |
| RKETFYTLSCR [GUCY2C_Y681] | 1.03 | 2.44 | 2.02 | 6.83 | 2.07 | 1.17 | 1 | 1.49 | 1.39 | 1.29 | 1.32 | 1.03 | 1.27 | 0.996 | 0.821 | 0.749 |
| ANFAKYGNPNE [BCHE_Y505] | 0.372 | 0.307 | 0.461 | 0.361 | 0.549 | 0.384 | 0.406 | 0.462 | 0.426 | 0.357 | 0.561 | 0.362 | 0.331 | 0.784 | 0.6 | 0.382 |
| CFTGKYTLPPG [HSPB1_Y142_R140G] | 0.908 | 0.595 | 0.429 | 0.767 | 1.25 | 0.562 | 0.521 | 0.447 | 0.75 | 0.833 | 1.09 | 0.519 | 0.649 | 0.592 | 0.377 | 0.585 |
| MDFRSYPHEFG [RBM10_Y44_R46H_YF] | 0.536 | 0.397 | 0.317 | 0.366 | 0.69 | 0.434 | 0.354 | 0.464 | 0.526 | 0.465 | 0.64 | 0.335 | 0.402 | 0.88 | 0.766 | 0.624 |
| IGRHAYGDQYR [IDH1_Y135] | 0.534 | 0.371 | 0.381 | 0.314 | 0.599 | 0.434 | 0.417 | 0.398 | 0.447 | 0.462 | 0.56 | 0.327 | 0.406 | 1.03 | 0.681 | 0.657 |
